Data: article PMC8458385, “Molecular basis for PICS-mediated piRNA biogenesis and cell division” (Nature Communications, 2021)
Positions count from the first letter of the chain named. Numbers in names are those of the source.

T1: TOFU-6^RRM (residues 2-92) (C. elegans, UniProt Q09293 2-92)
T1 construct: TOFU-6, C. elegans, RRM domain, residues 2-92; Gene codon-optimised and synthesised; for the crystal co-expressed with PICS-1^RRM from a modified pETDuet-1; also called TOFU-6 RRM domain; TOFU-6^C; source: E. coli BL21(DE3), purified (Ni-NTA, TEV, second Ni-NTA; complex with PICS-1^RRM also Superdex 75); not shown: His tag (from the Ni-NTA purification), N-terminal, cleaved
T1 sequence (looked up): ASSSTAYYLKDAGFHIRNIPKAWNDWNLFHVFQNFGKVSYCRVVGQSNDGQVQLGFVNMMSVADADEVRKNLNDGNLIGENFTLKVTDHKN

T2: TOFU-6^RRM (L73M) (SeMet) (C. elegans, UniProt Q09293 2-92, L73M, seleno-methionine (SeMet) labeled)
T2 construct: TOFU-6, C. elegans, RRM domain, residues 2-92; also called SeMet TOFU-6^RRM(L73M); source: E. coli BL21(DE3) in M9 medium with SeMet, purified with PICS-1^RRM (I233M) (Ni-NTA, TEV, Superdex 75); not shown: His tag (from the Ni-NTA purification), N-terminal, cleaved
T2 sequence (looked up): T1 sequence (looked up) with L72M

T3: ERH-2 D67A (C. elegans, UniProt Q20057 1-113, D67A)
T3 construct: ERH-2, C. elegans; Cloned into pET28-MHL; also called D67A of ERH-2; source: E. coli BL21(DE3), purified as the wild type; not shown: His tag (from the Ni-NTA purification), N-terminal, cleaved
T3 sequence (looked up): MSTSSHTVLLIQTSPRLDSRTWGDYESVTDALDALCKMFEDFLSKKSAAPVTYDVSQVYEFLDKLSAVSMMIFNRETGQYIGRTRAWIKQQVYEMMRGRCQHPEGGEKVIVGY

T4: PICS-1^5-282 (C. elegans, UniProt O76616 5-282)
T4 construct: Cloned into pET28-MHL; also called almost full-length PICS-1; source: E. coli BL21(DE3), purified (Ni-NTA, TEV, second Ni-NTA); not shown: His tag (from the Ni-NTA purification), N-terminal, cleaved
T4 sequence (looked up): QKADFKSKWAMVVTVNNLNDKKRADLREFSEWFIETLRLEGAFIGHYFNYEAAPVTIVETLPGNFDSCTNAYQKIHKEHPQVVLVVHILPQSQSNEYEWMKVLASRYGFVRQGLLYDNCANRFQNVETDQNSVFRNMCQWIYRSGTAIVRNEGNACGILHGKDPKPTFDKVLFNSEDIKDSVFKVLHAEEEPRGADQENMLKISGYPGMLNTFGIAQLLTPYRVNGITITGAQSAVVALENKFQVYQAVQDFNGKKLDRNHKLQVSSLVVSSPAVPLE

T5: PICS-1^5-200 (C. elegans, UniProt O76616 5-200)
T5 construct: PICS-1 (PID-3), C. elegans, residues 5-200; Cloned into pET28-MHL; also called PICS-1^ΔRRM; PICS1^ΔRRM; source: E. coli BL21(DE3), purified (Ni-NTA, TEV, second Ni-NTA); not shown: His tag (from the Ni-NTA purification), N-terminal, cleaved
T5 sequence (looked up): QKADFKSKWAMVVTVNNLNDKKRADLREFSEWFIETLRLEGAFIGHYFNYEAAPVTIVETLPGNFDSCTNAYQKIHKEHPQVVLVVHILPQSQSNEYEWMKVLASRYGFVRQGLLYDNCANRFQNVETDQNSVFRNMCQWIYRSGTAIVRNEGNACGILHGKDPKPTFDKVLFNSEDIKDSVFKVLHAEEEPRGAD

T6: ERH-2^1-103-(Gly-Ser-Ser)7-PICS-1^180-200 (C. elegans, UniProt Q20057 1-103; O76616 180-200)
T6 construct: ERH-2, C. elegans, residues 1-103; 21-aa linker (Gly-Ser-Ser)7; PICS-1 (PID-3), C. elegans, EBM, residues 180-200; Cloned into pET28-MHL; The results on ITC say only 'ERH-2' for the fused part; the methods describe only the 1-103 fusion; also called ERH-2-(GSS)7-PICS-1; ERH-2^1-103-(GSS)7-PICS-1^180-200; source: E. coli BL21(DE3), purified (Ni-NTA, TEV, second Ni-NTA, Superdex 75); not shown: His …
T6 chain: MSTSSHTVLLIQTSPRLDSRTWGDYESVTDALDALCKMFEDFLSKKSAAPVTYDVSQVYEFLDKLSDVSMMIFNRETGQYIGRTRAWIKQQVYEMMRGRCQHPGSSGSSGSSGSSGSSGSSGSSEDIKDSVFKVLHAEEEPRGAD

B1: ERH-2 (1-103), the ERH-2 part of the crystallised fusion proteins (domain or fragment, C. elegans, UniProt Q20057 1-103, looked up)
chain: MSTSSHTVLLIQTSPRLDSRTWGDYESVTDALDALCKMFEDFLSKKSAAPVTYDVSQVYEFLDKLSDVSMMIFNRETGQYIGRTRAWIKQQVYEMMRGRCQHP
notes: ERH-2, C. elegans, residues 1-103; In the crystals it stood joined on one chain with PICS-1^180-200 (via (GSS)7) or TOST-1^34-54 (via (GSS)6); written apart for the rows of the two partners; also called ERH-2^A; ERH-2^B; source: E. coli BL21(DE3), purified as part of the fusion proteins m8 and m9
B2: PICS-1^RRM (residues 201-282) (domain or fragment, C. elegans, UniProt O76616 201-282, looked up)
chain: QENMLKISGYPGMLNTFGIAQLLTPYRVNGITITGAQSAVVALENKFQVYQAVQDFNGKKLDRNHKLQVSSLVVSSPAVPLE
notes: Homodimer in the crystal and by gel filtration; also called PICS-1(PID-3) RRM domain; PID-3; source: E. coli BL21(DE3), purified (Ni-NTA, TEV, second Ni-NTA, Superdex 75); not shown: His tag (from the Ni-NTA purification), N-terminal, cleaved
B3: PICS-1^RRM (I233M) (SeMet) (domain or fragment, C. elegans, UniProt O76616 201-282, looked up)
chain: B2 chain with I33M
modifications: seleno-methionine (SeMet) labeled
notes: also called SeMet PICS-1^RRM(I233M); source: E. coli BL21(DE3) in M9 medium with SeMet, purified with TOFU-6^RRM (L73M) (Ni-NTA, TEV, Superdex 75); not shown: His tag (from the Ni-NTA purification), N-terminal, cleaved
B4: SUMO-fused PICS-1 ERH-2 binding motif (EBM, residues 180-200) (domain or fragment, C. elegans, UniProt O76616 180-200, looked up)
chain: EDIKDSVFKVLHAEEEPRGAD
notes: Cloned into pET28-SUMO; the Kds are for the SUMO fusion protein; also called PICS-1^EBM; PICS-1^180-200; source: E. coli BL21(DE3), purified (Ni-NTA); not shown: SUMO, N-terminal, kept
B5: ERH-2 (natural protein, C. elegans, UniProt Q20057 1-113, looked up)
chain: T3 sequence (looked up) with A67D
notes: ERH-2, C. elegans, amplified from a cDNA library; also called wild type ERH-2; source: E. coli BL21(DE3), purified (Ni-NTA, TEV, second Ni-NTA); not shown: His tag (from the Ni-NTA purification), N-terminal, cleaved
B6: SUMO-fused PID-1^50-70 (domain or fragment, C. elegans, UniProt Q19541 50-70, looked up)
chain: TNLHRKVTLSDRFELAALGYE
notes: PID-1, C. elegans, residues 50-70; the results say it was fused to the C-terminus of SUMO; also called PID-1 fragment; source: E. coli BL21(DE3), purified (Ni-NTA); not shown: SUMO, N-terminal, kept

Legend:
[1] = molecular target: the molecule itself; test: crystal structure; fusion protein ERH-2^1-103-(GSS)7-PICS-1^180-200, 2.40 Å; 15% 2-propanol, 0.1 M sodium citrate pH 5.0, 10% PEG 10000, 18 °C
[2] = molecular target: the molecule itself; test: SEC; wild type and F217E of PICS-1^RRM on HiLoad 16/600 Superdex 75, 20 mM Tris hydrochloride pH 8.5, 200 mM NaCl
[3] = molecular target: T1, TOFU-6^RRM (residues 2-92); test: ITC; MicroCal ITC200, 25 °C, 20 mM Tris pH 8.5, 200 mM NaCl or 20 mM MES pH 6.5, 200 mM NaCl; 1–2 mM in the syringe into 30–50 μM in the cell; one-site binding model; settings: both partners purified
[4] = molecular target: the molecule itself; test: crystal structure; SeMet TOFU-6^RRM (L73M)/PICS-1^RRM (I233M) complex, 1.95 Å; 2% 1,4-dioxane, 0.1 M Tris hydrochloride pH 8.0, 15% PEG 3350, 0.01 M nickel chloride, 18 °C
[5] = molecular target: T2, TOFU-6^RRM (L73M) (SeMet); test: as above; settings: both partners purified
ERH-2 = molecular target: B5; test: ITC; MicroCal ITC200, 25 °C, 20 mM Tris pH 8.5, 200 mM NaCl or 20 mM MES pH 6.5, 200 mM NaCl; 1–2 mM in the syringe into 30–50 μM in the cell; one-site binding model; settings: both partners purified
ERH-2 D67A = molecular target: T3, ERH-2 D67A; test: as above; settings: both partners purified
PICS-1^5-282 = molecular target: T4, PICS-1^5-282; test: SEC; ERH-2 and TOFU-6^RRM mixed with PICS-1 constructs, Superose 6 Increase 10/300 GL, 20 mM Tris hydrochloride pH 8.5, 200 mM NaCl; fractions on SDS-PAGE; settings: both partners purified
PICS-1^5-200 = molecular target: T5, PICS-1^5-200; test: as above; settings: both partners purified
[6] = molecular target: T6, ERH-2^1-103-(Gly-Ser-Ser)7-PICS-1^180-20 …; test: ITC; MicroCal ITC200, 25 °C, 20 mM Tris pH 8.5, 200 mM NaCl or 20 mM MES pH 6.5, 200 mM NaCl; 1–2 mM in the syringe into 30–50 μM in the cell; one-site binding model; settings: both partners purified

B1
binding result [1]: binds

B2
binding result [2]: binds
Kd [3]: 6.2 nM

B3
binding result [4]: binds
binding result [5]: binds

B4
Kd (ERH-2): 8.5 µM
Kd (ERH-2 D67A): 4.3 µM

B5
binding result (PICS-1^5-282): binds
binding result (PICS-1^5-200): binds

B6
Kd (ERH-2): 18 µM
Kd [6]: 12 µM
